Experimental data: publication PMC5679017 (Journal of medicinal chemistry, 2016)
Each block holds one binder with its values, some of them ahead of it. Square brackets hold non-standard residues; d marks the D form. Ends that are not written are not given here.

Key:
Test in all cases: radioligand binding
[1] = molecular target: mouse melanocortin-1 receptor (mouse, UniProt Q01727 1-315)
[2] = molecular target: mouse melanocortin-4 receptor (mouse, UniProt P56450 1-332)
[3] = molecular target: mouse melanocortin-3 receptor, Flag-tagged (mouse, UniProt P33033 1-323)
Chain of mouse melanocortin-3 receptor, Flag-tagged (P33033 whole entry): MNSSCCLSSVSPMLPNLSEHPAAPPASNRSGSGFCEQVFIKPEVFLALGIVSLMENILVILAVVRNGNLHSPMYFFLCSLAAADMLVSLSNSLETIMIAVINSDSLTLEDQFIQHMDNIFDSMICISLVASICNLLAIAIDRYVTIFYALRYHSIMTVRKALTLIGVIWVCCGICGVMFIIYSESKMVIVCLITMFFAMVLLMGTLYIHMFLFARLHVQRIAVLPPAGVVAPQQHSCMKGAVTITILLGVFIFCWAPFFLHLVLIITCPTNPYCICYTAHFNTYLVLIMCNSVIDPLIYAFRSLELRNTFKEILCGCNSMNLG

Chain of mouse melanocortin-4 receptor (P56450 whole entry): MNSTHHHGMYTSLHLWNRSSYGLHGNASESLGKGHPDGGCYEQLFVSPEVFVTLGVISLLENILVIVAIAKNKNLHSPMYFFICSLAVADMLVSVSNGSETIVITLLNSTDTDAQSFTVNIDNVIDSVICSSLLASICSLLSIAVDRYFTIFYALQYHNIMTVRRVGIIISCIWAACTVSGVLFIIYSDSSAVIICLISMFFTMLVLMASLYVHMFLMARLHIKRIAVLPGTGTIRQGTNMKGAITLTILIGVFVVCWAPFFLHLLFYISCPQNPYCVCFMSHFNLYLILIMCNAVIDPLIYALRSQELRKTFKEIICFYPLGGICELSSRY
Chain of mouse melanocortin-1 receptor (Q01727 whole entry): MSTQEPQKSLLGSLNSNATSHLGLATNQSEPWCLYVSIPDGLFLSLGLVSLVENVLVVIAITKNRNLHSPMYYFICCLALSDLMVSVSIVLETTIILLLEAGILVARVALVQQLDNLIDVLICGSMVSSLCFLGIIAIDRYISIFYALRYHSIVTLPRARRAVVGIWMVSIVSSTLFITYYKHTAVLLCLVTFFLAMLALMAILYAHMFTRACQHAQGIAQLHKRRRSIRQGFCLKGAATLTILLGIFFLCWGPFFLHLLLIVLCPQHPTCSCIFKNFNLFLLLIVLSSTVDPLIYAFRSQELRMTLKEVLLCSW

IC50 [1]: 225 nM
IC50 [2]: 841 nM
B1: compound 4 (CJL-5-35-1): Ac-His-DPhe-Arg-Trp-NH2 scaffold with (Pro-Gly)6 added to the C-terminus (peptide)
peptide: Ac-H[dF]RWPGPGPGPGPGPG-NH2
SMILES: CC(=O)N[C@@H](Cc1c[nH]cn1)C(=O)N[C@H](Cc1ccccc1)C(=O)N[C@@H](CCCNC(=N)N)C(=O)N[C@@H](Cc1c[nH]c2ccccc12)C(=O)N1CCC[C@H]1C(=O)NCC(=O)N1CCC[C@H]1C(=O)NCC(=O)N1CCC[C@H]1C(=O)NCC(=O)N1CCC[C@H]1C(=O)NCC(=O)N1CCC[C@H]1C(=O)NCC(=O)N1CCC[C@H]1C(=O)NCC(N)=O

IC50 [2]: 258 nM
IC50 [3]: 8430 nM
B2: compound 5 (CJL-1-41): His-DPhe-Arg-Trp-NH2 scaffold with (Pro-Gly)6 added to the N-terminus (peptide)
peptide: PGPGPGPGPGPGH[dF]RW-NH2
modifications: N-terminus assumed
SMILES: N=C(N)NCCC[C@H](NC(=O)[C@@H](Cc1ccccc1)NC(=O)[C@H](Cc1c[nH]cn1)NC(=O)CNC(=O)[C@@H]1CCCN1C(=O)CNC(=O)[C@@H]1CCCN1C(=O)CNC(=O)[C@@H]1CCCN1C(=O)CNC(=O)[C@@H]1CCCN1C(=O)CNC(=O)[C@@H]1CCCN1C(=O)CNC(=O)[C@@H]1CCCN1)C(=O)N[C@@H](Cc1c[nH]c2ccccc12)C(N)=O

IC50 [1]: 27.5 nM
IC50 [2]: 33 nM
IC50 [3]: 3250 nM
B3: compound 6 (CJL-1-31): homobivalent ligand, two His-DPhe-Arg-Trp scaffolds joined by (Pro-Gly)6 (peptide)
peptide: H[dF]RWPGPGPGPGPGPGH[dF]RW-NH2
